Data published in publication PMC4388654, “A Humanized Leucine Zipper-TRAIL Hybrid Induces Apoptosis of Tumors both In Vitro and In Vivo” (PLoS ONE, 2015).

Target: the molecule itself
Assay: AUC; sedimentation equilibrium; 0.5, 0.17 and 0.06 mg/ml in PBS, 20°C, 18,000 rpm, 24 h; Monomer-Nmer model (HeteroAnalysis); monomer to trimer

B1: ATF7-pII leucine zipper-TRAIL (ligand, human)
chain: VSSIEKKIEEITSQIIQISNEITLIRNEIAQIKQKGSGQRVAAHITGTRGRSNTLSSPNSKNEKALGRKINSWESSRSGHSFLSNLHLRNGELVIHEKGFYYIYSQTYFRFQEEIKENTKNDKQMVQYIYKYTSYPDPILLMKSARNSCWSKDAEYGLYSIYQGGIFELKENDRIFVSVTNEHLIDMDHEASFFGAFLVG
notes: linker between the leucine zipper and TRAIL; Tumor necrosis factor-Related Apoptosis-Inducing Ligand (TRAIL), human, Gln120-Gly281; No tag is stated; the calculated trimer mass of 69.0 kDa fits zipper + linker + TRAIL 120-281 without a tag; also called ATF7-TRAIL; ATF7 leucine zipper-TRAIL; source: P. pastoris (pGAPZα), secreted, purified (Co2+-metal chelating chromatography, 0 to 25 mM imidazole …)
  stoichiometry N: 3
